Here are results for four molecules from paper PMC7923543, “Molecular mechanisms of assembly and TRIP13-mediated remodeling of the human Shieldin complex” (Proceedings of the National Academy of Sciences of the …, 2021).

Data set [1] deals with the molecule itself. The data set can be described thus: cryo-EM structure; reconstituted complexes with TRIP13(E253Q) and ATPγS, 0.3 mg/mL, Titan Krios 300 kV, RELION3.
Data set [2] deals with T1, REV7 (R124A mutant), full-length (human, UniProt Q9UI95 1-211, R124A).
T1 construct: REV7 (MAD2L2, MAD2B), human, 211 residues, R124A; R124A was introduced to improve crystallization; also called MAD2L2; MAD2B; source: E. coli BL21 CodonPlus(DE3)-RIL, coexpressed with the SHLD3 fragment, purified (HisTrap, HiTrap Q, Superdex 200); not shown: His6-SUMO, N-terminal, cleaved
The data set can be described thus: crystal structure; coexpressed, co-purified SHLD3s–REV7(R124A) complex; hanging drop, 0.2 M ammonium acetate, 0.1 M Na citrate pH 5.6, 30% PEG4000, 20 °C; 2.7 Å. To be noted: both partners purified.

Data set [3] deals with T2, REV7 (human, UniProt Q9UI95 1-211).
T2 construct: REV7 (MAD2L2, MAD2B), human, 211 residues; also called MAD2L2; MAD2B; not shown: His6-SUMO, N-terminal, cleaved
The data set can be described thus: crystal structure; SHLD2.3–REV7_(4) complex (peak Q2); hanging drop, 0.1 M Na acetate pH 5.6, 1.5 M Na formate, 20 °C; 3.8 Å. The note with it: both partners purified.

Data set [4] concerns the target T1, REV7 (R124A mutant), full-length. The data set can be described thus: SEC-MALS; coexpressed, co-purified SHLD3(35–74)–REV7(R124A) complex; Superdex200 10/300, 20 mM Tris·HCl pH 7.5, 150 mM NaCl, 2 mM DTT. The note with it: both partners purified.

T1 sequence (Q9UI95 whole entry R124A, the tested form may be a part): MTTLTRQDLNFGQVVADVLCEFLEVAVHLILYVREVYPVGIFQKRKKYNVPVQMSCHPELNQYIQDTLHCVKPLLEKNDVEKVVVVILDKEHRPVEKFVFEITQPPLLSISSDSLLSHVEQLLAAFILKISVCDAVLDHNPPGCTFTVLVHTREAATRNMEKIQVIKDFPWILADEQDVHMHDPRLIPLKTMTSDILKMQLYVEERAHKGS
T2 sequence (Q9UI95 whole entry): as the sequence (Q9UI95 whole entry R124A, the tested form may be a part) above, with A124R counted along it

B1: TRIP13 catalytic mutant (E253Q) hexamer (enzyme)
chain: MDEAVGDLKQALPCVAESPTVHVEVHQRGSSTAKKEDINLSVRKLLNRHNIVFGDYTWTEFDEPFLTRNVQSVSIIDTELKVKDSQPIDLSACTVALHIFQLNEDGPSSENLEEETENIIAANHWVLPAAEFHGLWDSLVYDVEVKSHLLDYVMTTLLFSDKNVNSNLITWNRVVLLHGPPGTGKTSLCKALAQKLTIRLSSRYRYGQLIEINSHSLFSKWFSESGKLVTKMFQKIQDLIDDKDALVFVLIDQVESLTAARNACRAGTEPSDAIRVVNAVLTQIDQIKRHSNVVILTTSNITEKIDVAFVDRADIKQYIGPPSAAAIFKIYLSCLEELMKCQIIYPRQQLLTLRELEMIGFIENNVSKLSLLLNDISRKSEGLSGRVLRKLPFLAHALYVQAPTVTIEGFLQALSLAVDKQFEERKKLAAYI
notes: TRIP13, AAA+ ATPase, E253Q; used with ATPγS; also called TRIP13(E253Q); TRIP13 (E253Q); source: E. coli BL21 CodonPlus(DE3)-RIL, purified (HiTrap Q, Superdex 200)
As to B1, the “stoichiometry N” value in data set [1] was determined as 6.

B2: SHLD3s fusion protein (SHLD3 residues 35 to 58 and REV3 residues 1887 to 1894) (other, UniProt Q6ZNX1 35-58, looked up)
chain: LSRFIPWFPYDGSKLPLRPKRSPPREEIMATL
notes: SHLD3, human, residues 35-58; also called SHLD3_(35–58)
As to B2, the binding result in data set [2] is “binds”.

B3: SHLD2 fragment (residues 1 to 19), the SHLD2 part of SHLD2.3 (domain or fragment, human, UniProt Q86V20 1-19, looked up)
chain: MSGGSQVHIFWGAPIAPLK
notes: In the crystal it stood on one chain with SHLD3(1-58); written apart for the SHLD2–SHLD3 and SHLD2–REV7 contacts; also called SHLD2(residues 1 to 19); source: E. coli BL21 CodonPlus(DE3)-RIL, as part of the SHLD2.3 fusion chain, purified with REV7
Regarding B3, in data set [3], the binding result is recorded as “binds”.

B4: SHLD3 35- to 74-residue fragment (domain or fragment, human, UniProt Q6ZNX1 35-74, looked up)
chain: LSRFIPWFPYDGSKLPLRPKRSPPVISEEAAEDVKQYLTI
notes: SHLD3, human, 250 residues; residues 35-74; also called SHLD3_(35–74); source: E. coli, coexpressed with REV7(R124A), purified as the complex
B4: the binding result in data set [4] is on record as “binds”.
